Results: the supplement of paper PMC10724198
± gives the standard deviation of the averaged measurements.

Key:
Saccharomyces cerevisiae [1] = test: protein stability index of tFT-peptide fusion (C-terminal peptide) (PSI (0-1 scale)); higher = more stable (slower turnover); conditions: genetic background: wild type; temperature: 30 C
Saccharomyces cerevisiae [2] = test: as above
Procedure: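 MPS profiling in S. cerevisiae of the tFT-X12 degron library: putative degron peptides plus stable controls, 12 aa, fused to the C-terminus of a sfGFP-mCherry timer. Cells are FACS-sorted into 8 mCherry/sfGFP bins and deep-sequenced. PSI runs from 0 (unstable) to 1 (stable). Backgrounds are wild type, das1Δ and doa10Δ at 30 °C, and wild type, das1Δ, cdc34-1 and cdc53-1 at 37 °C; 2-3 technical replicates each.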

[3] = genetic background: cdc34-1, temperature: 37 C
[4] = genetic background: cdc53-1, temperature: 37 C
[5] = genetic background: das1 deletion, temperature: 30 C
[6] = genetic background: das1 deletion, temperature: 37 C
[7] = genetic background: doa10 deletion, temperature: 30 C
[8] = genetic background: wild type, temperature: 30 C
[9] = genetic background: wild type, temperature: 37 C
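Note: PSI is a weighted mean of sequencing reads over stability bins, variants kept only with over 10 reads, mCherry proximal and sfGFP distal, peptide attached via GGGS linker.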

Row | Sequence | protein stability index (Saccharomyces cerevisiae [1]) | protein stability index (Saccharomyces cerevisiae [2]; [3]) | protein stability index (Saccharomyces cerevisiae [2]; [4]) | protein stability index (Saccharomyces cerevisiae [2]; [5]) | protein stability index (Saccharomyces cerevisiae [2]; [6]) | protein stability index (Saccharomyces cerevisiae [2]; [7]) | protein stability index (Saccharomyces cerevisiae [2]; [8]) | protein stability index (Saccharomyces cerevisiae [2]; [9])
1 | ILDRRPRTFALV | 0.186 ± 0.0083 | 0.572 ± 0.017 | 0.644 ± 0.018 | 0.633 ± 0.02 | 0.692 ± 0.013 | 0.0946 ± 0.015 | 0.113 ± 0.011 | 0.149 ± 0.008
2 | IMGGLRHRIEVY | 0.352 ± 0.016 | 0.366 ± 0.038 | 0.403 ± 0.048 | 0.273 ± 0.028 | 0.477 ± 0.012 | 0.23 ± 0.0031 | 0.268 ± 0.034 | 0.437 ± 0.0067
3 | IRSLRPFLLPLF | 0.4088 ± 0.004 | 0.645 ± 0.016 | 0.731 ± 0.018 | 0.643 ± 0.022 | 0.7184 ± 0.0066 | 0.283 ± 0.004 | 0.306 ± 0.03 | 0.543 ± 0.0084
4 | IRVFSFLLFGCF | 0.44 ± 0.056 | 0.465 ± 0.027 | 0.503 ± 0.007 | 0.373 ± 0.033 | 0.546 ± 0.03 | 0.358 ± 0.012 | 0.364 ± 0.027 | 0.488 ± 0.02
5 | ISFQFFVCLCAR | 0.234 ± 0.019 | 0.13 ± 0.0054 | 0.181 ± 0.0063 | 0.159 ± 0.022 | 0.289 ± 0.0036 | 0.145 ± 0.005 | 0.161 ± 0.018 | 0.253 ± 0.0092
6 | ISHLQCFFVVML | 0.489 ± 0.042 | 0.439 ± 0.029 | 0.507 ± 0.025 | 0.355 ± 0.026 | 0.563 ± 0.016 | 0.3759 ± 0.0013 | 0.346 ± 0.034 | 0.485 ± 0.0089
7 | ISLSSLYVVMYV | 0.291 ± 0.024 | 0.413 ± 0.0072 | 0.418 ± 0.041 | 0.227 ± 0.026 | 0.428 ± 0.011 | 0.178 ± 0.0094 | 0.195 ± 0.027 | 0.3919 ± 0.0016
8 | IVFFVLFRFWRF | 0.32 ± 0.047 | 0.354 ± 0.019 | 0.3827 ± 0.0031 | 0.326 ± 0.038 | 0.46 ± 0.025 | 0.318 ± 0.02 | 0.294 ± 0.017 | 0.442 ± 0.013
9 | IVRLGRWLGLSC | 0.352 ± 0.052 | 0.657 ± 0.032 | 0.691 ± 0.025 | 0.613 ± 0.055 | 0.709 ± 0.013 | 0.215 ± 0.031 | 0.261 ± 0.028 | 0.494 ± 0.028
10 | IYEAFLVFCLCG | 0.365 ± 0.021 | 0.426 ± 0.016 | 0.454 ± 0.011 | 0.326 ± 0.028 | 0.543 ± 0.014 | 0.284 ± 0.016 | 0.287 ± 0.015 | 0.4385 ± 0.0019
11 | KKKEIIKIIKIN | 0.127 ± 0.013 | 0.311 ± 0.033 | 0.643 ± 0.044 | 0.697 ± 0.065 | 0.72 ± 0.048 | 0.0624 ± 0.022 | 0.0729 ± 0.034 | 0.0954 ± 0.039
12 | KKKKKKKIKIMS | 0.266 ± 0.048 | 0.583 ± 0.0096 | 0.706 ± 0.019 | 0.636 ± 0.024 | 0.689 ± 0.018 | 0.176 ± 0.03 | 0.232 ± 0.051 | 0.293 ± 0.032
13 | KKKNIYKVMKLE | 0.403 ± 0.055 | 0.65 ± 0.011 | 0.706 ± 0.011 | 0.646 ± 0.035 | 0.72636 ± 0.00051 | 0.146 ± 0.043 | 0.19 ± 0.041 | 0.307 ± 0.025
14 | KLCVGLVLSFVC | 0.257 ± 0.053 | 0.47 ± 0.021 | 0.503 ± 0.043 | 0.341 ± 0.028 | 0.5351 ± 0.0032 | 0.176 ± 0.0034 | 0.206 ± 0.023 | 0.3964 ± 0.0008
15 | KWGRFQQVMVIN | 0.266 ± 0.0042 | 0.558 ± 0.037 | 0.664 ± 0.014 | 0.5 ± 0.029 | 0.641 ± 0.0096 | 0.136 ± 0.0045 | 0.156 ± 0.022 | 0.34 ± 0.025
16 | KYQVIILQTRKI | 0.398 ± 0.0041 | 0.578 ± 0.014 | 0.754 ± 0.0091 | 0.634 ± 0.063 | 0.765 ± 0.032 | 0.201 ± 0.064 | 0.252 ± 0.053 | 0.491 ± 0.02
17 | LACGIDGYYWRH | 0.792 ± 0.027 | 0.703 ± 0.048 | 0.7448 ± 0.0019 | 0.667 ± 0.015 | 0.73851 ± 0.00042 | 0.6631 ± 0.0021 | 0.682 ± 0.028 | 0.709 ± 0.017
18 | LAFMYFVCPRLA | 0.369 ± 0.0057 | 0.598 ± 0.045 | 0.645 ± 0.0077 | 0.56 ± 0.02 | 0.6511 ± 0.0057 | 0.245 ± 0.0083 | 0.269 ± 0.031 | 0.464 ± 0.022
19 | LAVVLVWVPGRW | 0.418 ± 0.026 | 0.443 ± 0.037 | 0.526 ± 0.057 | 0.335 ± 0.032 | 0.563 ± 0.019 | 0.311 ± 0.0059 | 0.347 ± 0.023 | 0.561 ± 0.05
20 | LCFFLAFSFVFF | 0.296 ± 0.0099 | 0.253 ± 0.017 | 0.324 ± 0.011 | 0.231 ± 0.025 | 0.382 ± 0.026 | 0.289 ± 0.00096 | 0.236 ± 0.022 | 0.3374 ± 0.0016

Row | Sequence | protein stability index (Saccharomyces cerevisiae [1]) | protein stability index (Saccharomyces cerevisiae [2]; [3]) | protein stability index (Saccharomyces cerevisiae [2]; [4]) | protein stability index (Saccharomyces cerevisiae [2]; [5]) | protein stability index (Saccharomyces cerevisiae [2]; [6]) | protein stability index (Saccharomyces cerevisiae [2]; [7]) | protein stability index (Saccharomyces cerevisiae [2]; [8]) | protein stability index (Saccharomyces cerevisiae [2]; [9])
21 | LCFGMVELMWIY | 0.458 ± 0.0053 | 0.418 ± 0.057 | 0.52 ± 0.071 | 0.388 ± 0.046 | 0.521 ± 0.011 | 0.371 ± 0.047 | 0.377 ± 0.037 | 0.471 ± 0.018
22 | LCFRLVSYLCIN | 0.39 ± 0.0077 | 0.497 ± 0.054 | 0.694 ± 0.013 | 0.591 ± 0.048 | 0.6781 ± 0.0015 | 0.223 ± 0.0073 | 0.221 ± 0.011 | 0.37 ± 0.013
23 | LCGIFTFRLSLL | 0.388 ± 0.051 | 0.693 ± 0.06 | 0.7815 ± 0.0027 | 0.668 ± 0.028 | 0.706 ± 0.014 | 0.245 ± 0.026 | 0.273 ± 0.024 | 0.437 ± 0.005
24 | LCIYNFGWWFCV | 0.183 ± 0.056 | 0.494 ± 0.011 | 0.637 ± 0.044 | 0.561 ± 0.036 | 0.6389 ± 0.0054 | 0.121 ± 0.015 | 0.134 ± 0.0087 | 0.128 ± 0.014
25 | LCLLCWIPCSFR | 0.524 ± 0.048 | 0.629 ± 0.017 | 0.62751 ± 0.00045 | 0.451 ± 0.029 | 0.649 ± 0.0077 | 0.486 ± 0.035 | 0.4661 ± 0.0017 | 0.616 ± 0.0074
26 | LCLLFLSFFFVC | 0.307 ± 0.0056 | 0.464 ± 0.0083 | 0.515 ± 0.014 | 0.374 ± 0.037 | 0.555 ± 0.086 | 0.229 ± 0.015 | 0.234 ± 0.027 | 0.361 ± 0.0065
27 | LCVVVICCLMAR | 0.279 ± 0.05 | 0.097 ± 0.025 | 0.198 ± 0.055 | 0.123 ± 0.036 | 0.265 ± 0.0071 | 0.0806 ± 0.015 | 0.125 ± 0.026 | 0.216 ± 0.012
28 | LDLSSVFILYFN | 0.374 ± 0.022 | 0.599 ± 0.041 | 0.6735 ± 0.0021 | 0.518 ± 0.0058 | 0.709 ± 0.048 | 0.2653 ± 0.0025 | 0.28 ± 0.028 | 0.54398 ± 0.00036
29 | LEGRFLACRGIC | 0.264 ± 0.04 | 0.619 ± 0.028 | 0.719 ± 0.048 | 0.598 ± 0.018 | 0.728 ± 0.02 | 0.144 ± 0.017 | 0.157 ± 0.011 | 0.325 ± 0.02
30 | LEVHGSCIFICV | 0.444 ± 0.017 | 0.5422 ± 0.0046 | 0.5462 ± 0.0037 | 0.359 ± 0.039 | 0.5674 ± 0.0018 | 0.336 ± 0.041 | 0.374 ± 0.0092 | 0.492 ± 0.026
31 | LFAIFLVVLLFR | 0.219 ± 0.054 | 0.106 ± 0.016 | 0.089 ± 0.0072 | 0.195 ± 0.03 | 0.273 ± 0.0081 | 0.297 ± 0.0092 | 0.201 ± 0.028 | 0.2089 ± 0.0002
32 | LFFPLPGILSFF | 0.523 ± 0.046 | 0.76 ± 0.027 | 0.771 ± 0.022 | 0.631 ± 0.022 | 0.7783 ± 0.0029 | 0.484 ± 0.0073 | 0.498 ± 0.02 | 0.676 ± 0.033
33 | LFFWVLTVMFVW | 0.302 ± 0.046 | 0.162 ± 0.025 | 0.23 ± 0.0048 | 0.224 ± 0.013 | 0.3199 ± 0.00034 | 0.222 ± 0.011 | 0.195 ± 0.015 | 0.283 ± 0.015
34 | LFGRVLSGILSV | 0.523 ± 0.06 | 0.687 ± 0.04 | 0.721 ± 0.015 | 0.567 ± 0.019 | 0.702 ± 0.028 | 0.474 ± 0.014 | 0.524 ± 0.037 | 0.68 ± 0.011
35 | LFLLSHYALCFY | 0.3967 ± 0.0035 | 0.523 ± 0.0055 | 0.53 ± 0.018 | 0.441 ± 0.018 | 0.593 ± 0.028 | 0.333 ± 0.0045 | 0.336 ± 0.017 | 0.527 ± 0.012
36 | LFLSFLLFVLAF | 0.388 ± 0.042 | 0.434 ± 0.023 | 0.444 ± 0.015 | 0.319 ± 0.029 | 0.471 ± 0.036 | 0.302 ± 0.0039 | 0.312 ± 0.045 | 0.425 ± 0.0086
37 | LFLSIFFFHLLF | 0.37 ± 0.033 | 0.314 ± 0.023 | 0.251 ± 0.049 | 0.338 ± 0.041 | 0.4359 ± 0.0036 | 0.439 ± 0.045 | 0.313 ± 0.01 | 0.385 ± 0.041
38 | LFPVFFPLFAPA | 0.322 ± 0.03 | 0.285 ± 0.029 | 0.336 ± 0.035 | 0.266 ± 0.034 | 0.404 ± 0.018 | 0.206 ± 0.013 | 0.271 ± 0.018 | 0.36504 ± 0.00017
39 | LFSCTQLLPITA | 0.245 ± 0.032 | 0.0614 ± 0.017 | 0.077 ± 0.012 | 0.173 ± 0.02 | 0.198 ± 0.0068 | 0.141 ± 0.013 | 0.176 ± 0.018 | 0.166 ± 0.0061
